Test results published in PMC6668441, “Comparative Study of Subcutaneous and Orthotopic Mouse Models of Prostate Cancer: Vascular Perfusion, Vasculature Density, Hypoxic Burden and BB2r-Targeting Efficacy” (Scientific Reports, 2019).

Key:
[1] = Biodistribution, BB2r-targeted uptake, orthotopic PC-3 xenograft model; conditions: male, NOD SCID, mouse, iv, total radioactivity, orthotopic model, 10 µCi i.v., 1 h 5 min p.i., mean ± SD; for dose excreted at 65 min: urine and faeces, excretion (urine and fecal material)
Protocol: (§1) For the subcutaneous model, 5-week old female SCID mice were inoculated in the flanks with 5 × 10^6 PC-3 cells (American Type Culture Collection (ATCC), VA) in Matrigel®. The tumor size was monitored by caliper. For the generation of the orthotopic model, the PC-3-Luc cells were selected by 0.5 µg/mL puromycin twice before inoculation. The male 6-weeks SCID mice were anesthetized, the muscles of the abdomen area were cut after retracting the skin, and the prostate gland exposed. 50 μL of PC-3-Luc cell suspension at 0.5 × 10^6/mL in Matrigel® was injected into a dorsal prostatic lobe. The wound was closed in two layers and the skin was clipped. Animals were given analgesic drugs for 3 days and the tumors were monitored by an IVIS optical imaging system.
(§2) The mice were injected, monitored and dissected in the lab with the temperature of 23 °C and 17% relative humidity. All animals were awake until sacrifice. The body weight, tumor volume and tumor luminescence of the mice were recorded every three days. At four-to-seven weeks post-xenograft implantation, the mice were divided into three groups by tumor volume: <300, 300–700 and >700 mm^3 in both animal models. […] Each mouse (average weight: 20 g for female mice and 25 g for male mice) was treated with pimonidazole solution (80 mg/kg in PBS) via intraperitoneal injection. […] After an additional 1 h, the mice were injected intravenously with a PBS solution containing 10 µCi (370 kBq) of [^99mTc]NaTcO4 and 15 mg/kg Hoechst 33342. The animals were sacrificed 5 minutes later, and their tissues collected. The excised tissues were weighed, the radioactivity for each tissue was measured by γ-counter and the percentage injected dose per gram (%ID/g) was calculated for each tissue. […]
(§3) Establishment of Stably Transfected PC-3-Luc Cells
(§4) To generate the PC-3-Luc cells, we utilized pre-made lentivirus particles encoding luciferase and GFP (EF1a-Luciferase (firefly)-2A-GFP (Puro), AMSBIO) for transfection. Briefly, normal PC-3 cells were seeded in a 24-well plate using 0.5 mL of medium containing 0.5 × 10^5 cells/mL and incubated overnight. The medium was removed and replaced with 0.5 mL of fresh medium pre-mixed with 2.5 ȝL TransduxTM. To each well was added 2 ȝL of the lentivirus particle solution and swirled to mix. The plate was returned to the incubator and cultured for 3 days. Once the cells grew to confluence, they were harvested and transferred to larger plates (from 6-well plates to 60 mm dishes). 1.5 mL of suspended cells in PBS at a concentration of 5 × 10^6/mL was sorted by the FACS method to give the GFP positive (PC-3-Luc) cells that were returned to culture for in vitro and in vivo studies.
(§5) The normal PC-3 cells and PC-3-Luc were cultured in our laboratory, as per ATCC protocols, in Ham’s F-12K medium containing 10% FBS, 2.5 mM L-glutamine, 15 mM HEPES and 0.5 mM sodium pyruvate. Cells were incubated at 37 °C […]
(§6) All animal experiments were performed in accordance with the NIH animal use guideline and protocol approved by the […]

[2] = tested on: orthotopic PC-3 xenografts; assay: as above
Protocol: as §1, §2, §3, §4, §5, §6

CSCC[C@H](NC(=O)[C@H](CC(C)C)NC(=O)[C@H](Cc1c[nH]cn1)NC(=O)CNC(=O)[C@@H](NC(=O)[C@H](C)NC(=O)[C@H](Cc1c[nH]c2ccccc12)NC(=O)[C@H](CCC(N)=O)NC(=O)CCOCCOCCOCCOCCNC(=O)[C@@H](CO)NC(=O)[C@@H](CO)NC(=O)[C@@H](CO)NC(=O)[C@@H](CO)NC(=O)[C@@H](CO)NC(=O)CN1CCN(CC(=O)O)CCN(CC(=O)O)CCN(CC(=O)O)CC1)C(C)C)C(N)=O [[^177Lu]Lu-DOTA-SP714, metal not drawn]
tissue uptake at 65 min ([1]; blood, 10 uCi, blood uptake, tumor volume 300-700 mm^3): 0.33 ± 0.14 %ID/g
tissue uptake at 65 min ([1]; blood, 10 uCi, blood uptake, tumor volume <300 mm^3): 0.27 ± 0.19 %ID/g
tissue uptake at 65 min ([1]; blood, 10 uCi, blood uptake, tumor volume >700 mm^3): 0.57 ± 0.12 %ID/g
tissue uptake at 65 min ([1]; bone, 10 uCi (370 kBq), bone uptake, tumor volume 300-700 mm^3): 0.46 ± 0.22 %ID/g
tissue uptake at 65 min ([1]; bone, 10 uCi (370 kBq), bone uptake, tumor volume <300 mm^3): 0.29 ± 0.22 %ID/g
tissue uptake at 65 min ([1]; bone, 10 uCi (370 kBq), bone uptake, tumor volume >700 mm^3): 0.53 ± 0.24 %ID/g
tissue uptake at 65 min ([1]; brain, 10 uCi (370 kBq), brain uptake, tumor volume 300-700 mm^3): 0.06 ± 0.03 %ID/g
tissue uptake at 65 min ([1]; brain, 10 uCi (370 kBq), brain uptake, tumor volume <300 mm^3): 0.03 ± 0.01 %ID/g
tissue uptake at 65 min ([1]; brain, 10 uCi (370 kBq), brain uptake, tumor volume >700 mm^3): 0.06 ± 0.02 %ID/g
tissue uptake at 65 min ([1]; heart, 10 uCi (370 kBq), heart uptake, tumor volume 300-700 mm^3): 0.39 ± 0.49 %ID/g
tissue uptake at 65 min ([1]; heart, 10 uCi (370 kBq), heart uptake, tumor volume <300 mm^3): 0.13 ± 0.09 %ID/g
tissue uptake at 65 min ([1]; heart, 10 uCi (370 kBq), heart uptake, tumor volume >700 mm^3): 0.3 ± 0.17 %ID/g
tissue uptake at 65 min ([1]; kidney, 10 uCi (370 kBq), kidney uptake, tumor volume 300-700 mm^3): 4.8 ± 4.92 %ID/g
tissue uptake at 65 min ([1]; kidney, 10 uCi (370 kBq), kidney uptake, tumor volume <300 mm^3): 3.4 ± 0.92 %ID/g
tissue uptake at 65 min ([1]; kidney, 10 uCi (370 kBq), kidney uptake, tumor volume >700 mm^3): 5.98 ± 3.08 %ID/g
tissue uptake at 65 min ([1]; large intestine, 10 uCi (370 kBq), large intestine uptake, tumor volume 300-700 mm^3): 4.52 ± 1.31 %ID/g
tissue uptake at 65 min ([1]; large intestine, 10 uCi (370 kBq), large intestine uptake, tumor volume <300 mm^3): 2.06 ± 1.02 %ID/g
tissue uptake at 65 min ([1]; large intestine, 10 uCi (370 kBq), large intestine uptake, tumor volume >700 mm^3): 4.07 ± 1.91 %ID/g
tissue uptake at 65 min ([1]; liver, 10 uCi (370 kBq), liver uptake, tumor volume 300-700 mm^3): 0.4 ± 0.18 %ID/g
tissue uptake at 65 min ([1]; liver, 10 uCi (370 kBq), liver uptake, tumor volume <300 mm^3): 0.26 ± 0.07 %ID/g
tissue uptake at 65 min ([1]; liver, 10 uCi (370 kBq), liver uptake, tumor volume >700 mm^3): 0.52 ± 0.19 %ID/g
tissue uptake at 65 min ([1]; lung, 10 uCi (370 kBq), lung uptake, tumor volume 300-700 mm^3): 0.92 ± 0.41 %ID/g
tissue uptake at 65 min ([1]; lung, 10 uCi (370 kBq), lung uptake, tumor volume <300 mm^3): 0.82 ± 0.5 %ID/g
tissue uptake at 65 min ([1]; lung, 10 uCi (370 kBq), lung uptake, tumor volume >700 mm^3): 1.28 ± 0.47 %ID/g
tissue uptake at 65 min ([1]; muscle, 10 uCi (370 kBq), muscle uptake, tumor volume 300-700 mm^3): 0.22 ± 0.1 %ID/g
tissue uptake at 65 min ([1]; muscle, 10 uCi (370 kBq), muscle uptake, tumor volume <300 mm^3): 0.23 ± 0.12 %ID/g
tissue uptake at 65 min ([1]; muscle, 10 uCi (370 kBq), muscle uptake, tumor volume >700 mm^3): 0.48 ± 0.34 %ID/g
tissue uptake at 65 min ([1]; pancreas, 10 uCi (370 kBq), pancreas uptake, tumor volume 300-700 mm^3): 40.1 ± 11.5 %ID/g
tissue uptake at 65 min ([1]; pancreas, 10 uCi (370 kBq), pancreas uptake, tumor volume <300 mm^3): 30 ± 12.5 %ID/g
tissue uptake at 65 min ([1]; pancreas, 10 uCi (370 kBq), pancreas uptake, tumor volume >700 mm^3): 37.2 ± 7.29 %ID/g
tissue uptake at 65 min ([1]; small intestine, 10 uCi (370 kBq), small intestine uptake, tumor volume 300-700 mm^3): 3.74 ± 1.15 %ID/g
tissue uptake at 65 min ([1]; small intestine, 10 uCi (370 kBq), small intestine uptake, tumor volume <300 mm^3): 2.97 ± 0.66 %ID/g
tissue uptake at 65 min ([1]; small intestine, 10 uCi (370 kBq), small intestine uptake, tumor volume >700 mm^3): 3.8 ± 1.46 %ID/g
tissue uptake at 65 min ([1]; spleen, 10 uCi (370 kBq), spleen uptake, tumor volume 300-700 mm^3): 2.02 ± 3.14 %ID/g
tissue uptake at 65 min ([1]; spleen, 10 uCi (370 kBq), spleen uptake, tumor volume <300 mm^3): 1.77 ± 1.19 %ID/g
tissue uptake at 65 min ([1]; spleen, 10 uCi (370 kBq), spleen uptake, tumor volume >700 mm^3): 2.91 ± 4.89 %ID/g
tissue uptake at 65 min ([1]; stomach, 10 uCi (370 kBq), stomach uptake, tumor volume 300-700 mm^3): 1.59 ± 0.9 %ID/g
tissue uptake at 65 min ([1]; stomach, 10 uCi (370 kBq), stomach uptake, tumor volume <300 mm^3): 1.07 ± 0.53 %ID/g
tissue uptake at 65 min ([1]; stomach, 10 uCi (370 kBq), stomach uptake, tumor volume >700 mm^3): 1.46 ± 0.62 %ID/g
tissue uptake at 65 min ([1]; tumor, 10 uCi, tumor uptake, tumor volume 300-700 mm^3): 8.55 ± 2.65 %ID/g
tissue uptake at 65 min ([1]; tumor, 10 uCi, tumor uptake, tumor volume <300 mm^3): 8.07 ± 3.23 %ID/g
tissue uptake at 65 min ([1]; tumor, 10 uCi, tumor uptake, tumor volume >700 mm^3): 11.1 ± 2.88 %ID/g
dose excreted at 65 min ([1]; 10 uCi, tumor volume 300-700 mm^3): 67.2 ± 8.53%
dose excreted at 65 min ([1]; 10 uCi, tumor volume <300 mm^3): 60.8 ± 29.3%
dose excreted at 65 min ([1]; 10 uCi, tumor volume >700 mm^3): 60.2 ± 10.8%
blood retention values between the two models ([2]; orthotopic versus subcutaneous): not statistically different
average tumor uptake, orthotopic versus subcutaneous model ([2]; tumor volume 300–700 mm^3, p = 0.011): 1.6 fold
average tumor uptake, orthotopic versus subcutaneous model ([2]; tumor volume <300 mm^3, p = 0.0055): 1.9 fold
average tumor uptake, orthotopic versus subcutaneous model ([2]; tumor volume >700 mm^3, p = 0.34): 1.2 fold
